{"source": "paper PMC3960148", "about": "“Atypical Response Regulator ChxR from Chlamydia trachomatis Is Structurally Poised for DNA Binding” (PLoS ONE, 2014)", "molecules": {"B1": {"name": "full-length ChxR (natural protein, Chlamydia trachomatis, UniProt A0A0H3MDW1 1-227, looked up)", "chain": "MAGPKHVLLVSEHWDLFFQTKELLNPEEYRCTIGQQYKQELSADLVVCEYSLLPREIRSPKSLEGSFVLVLLDFFDEETSVDLLDRGFWYLIRPITPRILKSAISLFLSQHSLHSVPESIRFGPNVFYVLKLTVETPEGSVHLTPSESGILKRLLINKGQLCLRKHLLEEIKNHAKAIVARNVDVHIASLRKKLGAYGSRIVTLRGVGYLFSDDGDKKFSQQDTKLS", "notes": "ChxR, atypical OmpR/PhoB subfamily response regulator of Chlamydia trachomatis, full length; The calculated MW of the dimer is ~56 kDa; also called wild-type ChxR; not shown: His-tag (24 residues), N-terminal, kept"}, "B2": {"name": "full-length ChxR with Ala substitution of Lys192 (natural protein)", "chain": "B1 chain with K192A", "notes": "ChxR of Chlamydia trachomatis, full-length protein with an Ala substitution; Made from the same plasmid as m1; also called Lys192 substitution; source: mutation introduced into the full-length ChxR plasmid (QuikChange II XL)"}, "B3": {"name": "ChxR^H186A (natural protein)", "chain": "B1 chain with H186A", "notes": "ChxR of Chlamydia trachomatis, full-length protein with an Ala substitution; Made from the same plasmid as m1; also called His186 substitution; source: mutation introduced into the full-length ChxR plasmid (QuikChange II XL)"}, "B4": {"name": "full-length ChxR with Ala substitution of Arg205 (natural protein)", "chain": "B1 chain with R205A", "notes": "ChxR of Chlamydia trachomatis, full-length protein with an Ala substitution; Made from the same plasmid as m1; also called Arg205 substitution; source: mutation introduced into the full-length ChxR plasmid (QuikChange II XL)"}, "B5": {"name": "full-length ChxR with Ala substitution of Asn182 (natural protein)", "chain": "B1 chain with N182A", "notes": "ChxR of Chlamydia trachomatis, full-length protein with an Ala substitution; Made from the same plasmid as m1; also called Asn182 substitution; source: mutation introduced into the full-length ChxR plasmid (QuikChange II XL)"}}, "key": {"[1]": {"tested_on": "ChxR effector domain (ChxREff) (Chlamydia trachomatis)", "assay": "EMSA", "conditions": "EMSA as in ref 17 (buffer, salt, pH, temperature not given); 1 nM IR800-DNA with 50 nM-10 uM ChxREff, triplicate; 44 uM full-length ChxR (wild type, H186A) in …"}, "[2]": {"biological_target": "the molecule itself", "assay": "SAXS; full-length ChxR in solution at 1.25, 2.5 and 5.0 mg/ml, 20°C, 5% (v/v) glycerol added; curves extrapolated to infinite dilution; mass estimated from the Porod volume"}, "[3]": {"biological_target": "the molecule itself", "assay": "SEC; proper folding of the full-length ChxR Ala mutants was assessed by size exclusion chromatography; the sentence on homodimers names no method"}}, "note": "Numbering of substitutions follows the chain as printed."}
{"molecule": "DR2 site of chxR promoter", "values": [{"measurement": "Kd", "setting": "[1]", "value": 450, "unit": "nM"}]}
{"molecule": "B1", "values": [{"measurement": "stoichiometry N", "setting": "[2]", "value": 2}]}
{"molecule": "B2", "values": [{"measurement": "binding result", "setting": "[3]", "value": "binds"}]}
{"molecule": "B3", "values": [{"measurement": "binding result", "setting": "[3]", "value": "binds"}]}
{"molecule": "B4", "values": [{"measurement": "binding result", "setting": "[3]", "value": "binds"}]}
{"molecule": "B5", "values": [{"measurement": "binding result", "setting": "[3]", "value": "binds"}]}
